Drawing on publication PMC4753521, “Real-time and simultaneous monitoring of the phosphorylation and enhanced interaction of p53 and XPC acidic domains with the TFIIH p62 subunit” (Oncogenesis, 2015), this text covers binding result and Kd for 6 molecules.

What all share (conditions): both partners purified
The target in experiment [1] is T1, human TFIIH p62-PH domain (residues 1–108) (human, UniProt P32780 1-108).
T1 construct: PH domain of the p62 subunit of the general transcription factor TFIIH, human, residues 1-108; Used 15N- or 13C/15N-labelled in the NMR experiments, unlabelled when added to XPC-AF; also called pleckstrin homology (PH) domain of the p62 subunit of TFIIH
T1 sequence (looked up): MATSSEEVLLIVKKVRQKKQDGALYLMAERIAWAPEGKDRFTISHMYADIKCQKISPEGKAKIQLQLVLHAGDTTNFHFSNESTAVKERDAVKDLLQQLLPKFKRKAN
Description: NMR titration; 1H,15N HSQC perturbation: p53-TAD2 peptides added to 15N-labeled p62-PH at a molar ratio of 1:2.5 (p62:p53); 20 mM potassium phosphate (pH 6.8), 1 mM ATP, 10 mM MgCl2, 5 mM deuterated DTT, 10% D2O; 32 °C.

In experiment [2] the target is T1, human TFIIH p62-PH domain (residues …). Briefly: NMR titration; real-time NMR of 150 μl of 50 μM complex of labeled XPC-AF and labeled p62-PH; 2.5 μg CK2 added; 20 mM potassium phosphate (pH 6.8), 1 mM ATP, 10 mM MgCl2, 5 mM deuterated DTT, 10% D2O.
Experiment [3] shares this target. Briefly: ITC; VP-ITC; 100 μM XPC peptide in the syringe (25 × 20 μl injections), 2 ml of 10 μM p62-PH in the cell; 20 °C; 20 mM potassium phosphate (pH 6.8).

Non-standard residues stand in square brackets, D forms with d. No end group written: not given here. pT = C[C@@H](OP(=O)(O)O)[C@H](N)C(=O)O; pS = N[C@@H](COP(=O)(O)O)C(=O)O

B1: Ser46-phosphorylated peptide of human p53-TAD2 (residues 41–62) (peptide, UniProt P04637 41-62, looked up)
peptide: DDLML[pS]PDDIEQWFTEDPGPDE
notes: p53 TAD2, human, residues 41-62; also called Ser46-phosphorylated p53-TAD2; source: synthetic peptide, bought: Sigma Genosys Japan
Turning to B1, the binding result in experiment [1] was “binds”.

B2: Ser46, Thr55 double-phosphorylated peptide of human p53-TAD2 (residues 41–62) (peptide, UniProt P04637 41-62, looked up)
peptide: DDLML[pS]PDDIEQWF[pT]EDPGPDE
notes: p53 TAD2, human, residues 41-62; also called Ser46, Thr55 double-phosphorylated p53-TAD2; source: synthetic peptide, bought: Sigma Genosys Japan
Take B2: the binding result in experiment [1] is “binds”.

B3: human XPC-AF (residues 109–156) phosphorylated at Ser129 by CK2 (domain or fragment, UniProt Q01831 109-156, looked up)
chain: AHHLKRGATMNEDSNEEEEE[pS]ENDWEEVEELSEPVLGDVRESTAFSRS
modifications: also: 13C/15N-labeled
notes: acidic fragment of the nucleotide excision repair factor XPC, human, residues 109-156; 13C/15N-labelled; in the complex with p62-PH phosphorylation of Ser129 reached ~80% at ~2 h; also called Ser129-phosphorylated XPC-AF; source: E. coli Rosetta 2 (DE3) pLysS, purified (Ni-NTA, thrombin digestion, Superdex30); phosphorylated by CK2 in the NMR tube
Regarding B3, in experiment [2], the binding result is given as “binds”.

B4: unphosphorylated peptide of human XPC (residues 124–142) (peptide, UniProt Q01831 124-142, looked up)
peptide: EEEEESENDWEEVEELSEP
notes: XPC, human, residues 124-142; also called unphosphorylated XPC peptide; source: synthetic peptide, bought: Sigma Genosys Japan
In turn, B4 registered a Kd in experiment [3] of 132 nM.

B5: Ser129-phosphorylated peptide of human XPC (residues 124–142) (peptide, UniProt Q01831 124-142, looked up)
peptide: EEEEE[pS]ENDWEEVEELSEP
notes: XPC, human, residues 124-142; also called Ser129-phosphorylated XPC peptide; source: synthetic peptide, bought: Sigma Genosys Japan
For the molecule B5, in experiment [3], binding was characterised by a dissociation constant (Kd) of 41 nM.

B6: Thr55-phosphorylated peptide of human p53-TAD2 (residues 41–62) (peptide, UniProt P04637 41-62, looked up)
peptide: DDLMLSPDDIEQWF[pT]EDPGPDE
notes: p53 TAD2, human, residues 41-62; also called Thr55-phosphorylated p53-TAD2; TP; source: synthetic peptide, bought: Sigma Genosys Japan
For B6, in experiment [1], the binding result is “binds”.
